According to patent US7803572B2, “Protease detection assay” (Atlas Genetics, Ltd., priority 2003, dated 2010):

What was measured:
[1] = test system: carboxypeptidase; test: Digestion of Fc-BSA with carboxypeptidase, differential pulse voltammetry; format: biochemical
Method: (§1) Protease assays were performed as follows unless stated otherwise. […] Samples were incubated at 37° C. for 1 hour.
A digestion of Fc-BSA with carboxypeptidase was carried out as described above. […] The positive reaction has a peak position of 435 mV and a peak height of 1.31×10^−7 A; the no elastase control reaction has a peak position of 427 mV and a peak height of 6.86×10^−8 A.

[2] = molecular target: T1, porcine pancreas trypsin (Sus scrofa, UniProt P00761); test: Effect of a protease inhibitor on electrochemical marker signal (trypsin digestion of Fc-BSA); format: biochemical; settings: reaction (i): no inhibitor added
T1 construct: purchased Sigma; host or cells: porcine pancreas
Method: as §1
Five digestions of Fc-BSA with trypsin were carried out using the protocol described above. In addition, soybean trypsin inhibitor was added to reaction mixtures […]. Solutions of the soybean trypsin inhibitor were prepared by resuspending inhibitor as supplied in deionised water to a concentration of 10 mg/ml and 1 mg/ml as appropriate. No inhibitor was added to reaction (i); 0.5 μl of 1 mg/ml inhibitor solution was added to reaction (ii); […] of 10 mg/ml inhibitor was added to reaction (iii); 5 μl of 10 mg/ml inhibitor solution was added to reaction (iv) and 5 μl of 10 mg/ml inhibitor solution was added to a no-trypsin control reaction. The differential pulse voltammogram results are shown in FIG. 16 with baseline correction.

[3] = molecular target: T2, trypsin (Sus scrofa, UniProt P00761); test: Amperometric analysis of trypsin digestion; format: biochemical, porcine; settings: amperometric time course trace
T2 construct: purchased Sigma; host or cells: porcine pancreas
Method: Four digestion reactions were carried out with real-time amperometric analysis. […] Tryspin was resuspended in HCl (1 mM, pH 3.0), papain and carboxypeptidase were resuspended in NaCl (100 mM). […] The amperometry conditions were as set out in Tables 2 and 3.
In FIG. 17, there is shown the amperometric time course trace for the trypsin digestion of Fc-BSA. […] As the movement of the species present in the solution reaches a steady state, the current response appears to decay.
In FIG. 18, there is shown the amperometric time course trace for the papain digestion of FcU-BSA. […] As the movement of the species present in the solution reaches a steady state, the current response appears to decay. […] The amperometric time course trace for the trypsin digestion of FcU-BSA is not illustrated in the drawings but was analogous.

T1 sequence (P00761 9-231): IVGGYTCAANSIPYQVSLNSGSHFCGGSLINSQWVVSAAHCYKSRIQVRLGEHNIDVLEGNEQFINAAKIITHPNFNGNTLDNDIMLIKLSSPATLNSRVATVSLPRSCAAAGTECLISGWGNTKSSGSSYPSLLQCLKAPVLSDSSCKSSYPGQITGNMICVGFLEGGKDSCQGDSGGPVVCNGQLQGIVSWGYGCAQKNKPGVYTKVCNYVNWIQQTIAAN
T2 sequence (P00761 9-231): as above

Q: How did the peak height ([1]; no elastase control reaction (so in the source)) turn out when “Fc-BSA: Bovine serum albumin labelled with ferrocene methanoyl groups via N-hydroxysuccinimide ester; estimated 10 to 20 ferrocenes per BSA” was run?
A: Its peak height is 6.86×10^−8 A.

Q: And the peak height ([1]; positive reaction, 37° C. for 1 hour)?
A: The peak height was 1.31×10^−7 A.

Q: And the peak height [2]?
A: Its peak height is 2.56×10^−7 A.

Q: What about the peak position [2] of the same substance?
A: Its peak position is 439 mV.

Q: And the “faradaic current response over time after addition of the enzyme” value [3]?
A: Its value is “increase in current”.
